From patent US12698507B2, “Methods and compositions for conferring and/or enhancing herbicide tolerance using protoporphyrinogen IX oxidase of various cyanobacteria or variant thereof” (FarmHannong Co., Ltd., priority 2019, dated 2026)

System: PPO-deficient BT3 E. coli (ΔPPO)
Experiment: PPO-inhibiting herbicide tolerance test of PPO variants in E. coli (growth on herbicide-containing LB agar)
Type: cell-based
Details: CyPPO19 variants in BT3 (ΔPPO) E. coli; LB agar with 0 to 2,000 μM herbicide, 37° C., dark, 16-20 hours
From the text: To enhance the PPO-inhibiting herbicide resistance of CyPPO19 and CyPPO18, PPO variant genes of the above example 2 were constructed. They were transformed to BT3 (ΔPPO) strain which is deficient of PPO activity and cultured in LB media with PPO-inhibiting herbicide, thereby examining whether growth of transformed BT3 was not inhibited.
BT3 competent cells were transformed with the pET303-CyPPO19 (wild type), pET303-CyPPO18 (wild type) plasmids, and those with a mutation(s) constructed (refer to example 2) via heat shock method, and were cultured in LB agar media containing ampicillin.
Single colony transformed with each CyPPO gene was cultured in 3 mL of LB broth (LPSS) containing ampicillin for more than 12 hours, and then was subcultured in LB broth until absorbance (OD600) reached 0.5 to 1. Then, it was diluted with LB broth to OD600=0.5. Again, the diluted solution was serially diluted 4 times by a factor of one tenth.
The LB agar media (LB 25 g/L, Bacto agar 12 g/L) containing ampicillin (100 μg/mL) and 0 to 2,000 μM of various herbicides were prepared. Herbicide solution stocks were all prepared in DMSO.
Then, 10 μL of each diluted solution of E. coli was dropped on the plate and cultured at 37° C. under dark for 16-20 hours. PPO-inhibiting herbicide resistance was evaluated with the extent of E. coli growth containing each gene was observed.
The extent of herbicide resistance was evaluated by the relative growth of variants to that of wild type, and listed in Tables 9 and 10 and FIGS. 3 to 32.
In Tables 9 and 10, the tolerance level of variants showing equivalent resistance to wild type was presented as ‘−’, and was done as ‘+’ per each 10-fold resistance until ‘+++++’ as maximal resistance.
FIGS. 3 to 30 and FIGS. 31 and 32 show the transformed E. coli growth result of CyPPO19 WT and its variants and CyPPO18 WT and its variants, respectively. The concentrations of herbicides were written above the photographs of tolerance test. A 10-fold dilution series of spots were shown from OD600=0.5 of the leftmost spot to OD600=0.00005 of the rightmost one.

B1: CyPPO19 V165S + V305L + F360L: variant of CyPPO19 PPO protein (SEQ ID NO: 1) (protein)
chain: MSEVDVAIVGGGLSGLSLAWRLQQSAPQYSVVLLEASDRLGGNITTQTAEGFVWELGPNSFAPTPALLQLIAEVGLQSELIRGDRHLPRYIYWRGQLYPLQPTRPLALATSNLLSPWGKVRAALGALGFVPPYLGSGDESVNSFFRRHLGQEVAERLVAPFVSGSYAGDPQQLSAAAAFRRIAQLEKLGGGLIAGALHLRRQQAPKPKPPTSVQMRPGELGSFKEGLAALPRAIAQQLKAPIHLQTPVQEITPDPKGGYLLRSGEQTWRARSVVLATPAYQTAELVAPFQPAIARVLATIPYPTLACVVLAYPAGLGRSVRPGFGVLIPRSQGIRTLGTIWSSCLFPQRTPAGWQVFTSLIGGATDPDLASLSEEAIVQQVQQDLNRLLDLPAAKARLLGMKVWRRAIPQYMVGYPEQWQQVTHALSQTPGLFLCSNYAEGVALGDRVEHGNRTAAAVAAYLSGGQP
modifications: Synthetic_PPO of Thermosynechococcus elongatus PKUAC-SCTE542 (comprising GenBank No. CP032152.1)
tolerance level relative to wild type, Carfentrazone: + (‘+’ per each 10-fold resistance) | tolerance level relative to wild type, Flumioxazin: +++++ (until ‘+++++’ as maximal resistance) | tolerance level relative to wild type, Fomesafen: +++ (‘+’ per each 10-fold resistance) | tolerance level relative to wild type, Oxyfluorfen: +++ (‘+’ per each 10-fold resistance) | tolerance level relative to wild type, Saflufenacil: +++++ (until ‘+++++’ as maximal resistance) | tolerance level relative to wild type, Sulfentrazone: +++++ (until ‘+++++’ as maximal resistance) | tolerance level relative to wild type, Tiafenacil: +++++ (until ‘+++++’ as maximal resistance)

B2: CyPPO19 V165C + L327T + F360I: variant of CyPPO19 PPO protein (SEQ ID NO: 1) (protein)
chain: MSEVDVAIVGGGLSGLSLAWRLQQSAPQYSVVLLEASDRLGGNITTQTAEGFVWELGPNSFAPTPALLQLIAEVGLQSELIRGDRHLPRYIYWRGQLYPLQPTRPLALATSNLLSPWGKVRAALGALGFVPPYLGSGDESVNSFFRRHLGQEVAERLVAPFVSGCYAGDPQQLSAAAAFRRIAQLEKLGGGLIAGALHLRRQQAPKPKPPTSVQMRPGELGSFKEGLAALPRAIAQQLKAPIHLQTPVQEITPDPKGGYLLRSGEQTWRARSVVLATPAYQTAELVAPFQPAIARVLATIPYPTVACVVLAYPAGLGRSVRPGFGVTIPRSQGIRTLGTIWSSCLFPQRTPAGWQVFTSIIGGATDPDLASLSEEAIVQQVQQDLNRLLDLPAAKARLLGMKVWRRAIPQYMVGYPEQWQQVTHALSQTPGLFLCSNYAEGVALGDRVEHGNRTAAAVAAYLSGGQP
modifications: Synthetic_PPO of Thermosynechococcus elongatus PKUAC-SCTE542 (comprising GenBank No. CP032152.1)
tolerance level relative to wild type, Carfentrazone: + (‘+’ per each 10-fold resistance) | tolerance level relative to wild type, Flumioxazin: +++++ (until ‘+++++’ as maximal resistance) | tolerance level relative to wild type, Fomesafen: ++ (‘+’ per each 10-fold resistance) | tolerance level relative to wild type, Oxyfluorfen: +++ (‘+’ per each 10-fold resistance) | tolerance level relative to wild type, Saflufenacil: ++++ (‘+’ per each 10-fold resistance) | tolerance level relative to wild type, Sulfentrazone: +++++ (until ‘+++++’ as maximal resistance) | tolerance level relative to wild type, Tiafenacil: +++++ (until ‘+++++’ as maximal resistance)
